Article PMC10189128 (Frontiers in Cellular and Infection Microbiology, 2023)

Biological target: T1, Mouse Fc-fused SARS-CoV-2 RBD (SARS-CoV-2, original strain (Wuhan-Hu-1 …, UniProt P0DTC2))
T1 construct: source: bought: Sino Biological
Assay: SPR
Details: both partners purified

B1: anti-SARS-CoV-2 single-chain variable fragment S1-16 (scFv, V domains shown)
VH: QVQLVQSGAEVKKPGASVKVSCKASGYTFTSYYMHWVRQAPGQGLEWMGIINSSGGSTSYAQKFQGRVTMTRDTSTSTVYMELSSLRSEDTAVYYCARPPRNYYDRSGYYQRAEYFQHWGQGTLVTVSS
VL: DIQLTQSPSSLSASVGDRVTITCQASQDISNYLNWYQQRPGKAPKLLIYDASNLETGVPSRFSGSGSGTDFTFTISSLQPEDIATYYCQQYDNPPLTFGGGTKLEIK
notes: also called scFv S1-16; not shown: His6, C-terminal, kept
  Kd: 135 nM
